Source: the supplement of paper PMC9112550, “Optimization of the antimicrobial peptide Bac7 by deep mutational scanning” (BMC Biology, 2022)

Test system: Escherichia coli TOP10
Test: shrunken log2 fold change of peptide-encoding DNA abundance (4.5 h post-induction vs induction); higher = less antimicrobial activity (less host growth inhibition)
Conditions: time post-induction: 4.5 h; library: site-saturation at positions 5, 18, 19, 20
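Further: peptides expressed intracellularly from a pBAD plasmid library in pooled LB shake-flask culture, induced with 0.3% L-arabinose, DNA abundance read by NGS, three biological replicates, DESeq2 with apeglm shrinkage.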

Sequence | shrunken log2 fold change
RRIRERPPRLPRPRPRPLLKPRP | -0.439
RRIRTRPPRLPRPRPRPIIEPRP | -0.565
RRIRTRPPRLPRPRPRPWAAPRP | -0.0363
RRIRCRPPRLPRPRPRPELYPRP | 0.221
RRIRYRPPRLPRPRPRPELGPRP | -0.00146
RRIRHRPPRLPRPRPRPQKHPRP | -0.992
RRIRVRPPRLPRPRPRPFIGPRP | -0.291
RRIRIRPPRLPRPRPRPAFYPRP | -0.387
RRIRLRPPRLPRPRPRPGSPPRP | 0.475
RRIRMRPPRLPRPRPRPEYMPRP | -0.00213
RRIRTRPPRLPRPRPRPTTDPRP | -0.0867
RRIRWRPPRLPRPRPRPDMLPRP | 0.142
RRIRKRPPRLPRPRPRPSPSPRP | 0.452
RRIRERPPRLPRPRPRPGTMPRP | 0.0721
RRIRCRPPRLPRPRPRPLPLPRP | -0.0103
RRIRPRPPRLPRPRPRPKVPPRP | 0.303
RRIRYRPPRLPRPRPRPVEFPRP | -1.06
RRIRHRPPRLPRPRPRPEERPRP | -0.0858
RRIRRRPPRLPRPRPRPIQDPRP | 2.65
RRIRTRPPRLPRPRPRPSFVPRP | -0.488
RRIRRRPPRLPRPRPRPAPWPRP | 0.626
RRIRCRPPRLPRPRPRPSWTPRP | -0.532
RRIRRRPPRLPRPRPRPNHRPRP | -0.0368
RRIRSRPPRLPRPRPRPNMFPRP | -0.289
RRIRWRPPRLPRPRPRPEVHPRP | -0.039

Sequence | shrunken log2 fold change
RRIRARPPRLPRPRPRPDKMPRP | 0.104
RRIRHRPPRLPRPRPRPMPVPRP | -0.0266
RRIRARPPRLPRPRPRPFEQPRP | -0.072
RRIRWRPPRLPRPRPRPGERPRP | 0.303
RRIRERPPRLPRPRPRPLHKPRP | -0.0653
RRIRYRPPRLPRPRPRPAFAPRP | -0.0121
RRIRPRPPRLPRPRPRPFGIPRP | -0.21
RRIRPRPPRLPRPRPRPIFTPRP | -0.0736
RRIRGRPPRLPRPRPRPVYCPRP | 0.0683
RRIRCRPPRLPRPRPRPCMCPRP | -0.668
RRIRQRPPRLPRPRPRPEQFPRP | 0.0588
RRIRARPPRLPRPRPRPDPWPRP | 0.308
RRIRSRPPRLPRPRPRPVHIPRP | -0.124
RRIRRRPPRLPRPRPRPPMNPRP | 0.172
RRIRCRPPRLPRPRPRPMGFPRP | -0.103
RRIRPRPPRLPRPRPRPVLHPRP | -0.1
RRIRNRPPRLPRPRPRPIAGPRP | -0.0235
RRIRMRPPRLPRPRPRPYPHPRP | 0.00442
RRIRARPPRLPRPRPRPKSHPRP | -0.184
RRIRDRPPRLPRPRPRPWMSPRP | -0.376
RRIRIRPPRLPRPRPRPVKTPRP | -0.0343
RRIRARPPRLPRPRPRPGLFPRP | 0.601
RRIRMRPPRLPRPRPRPCTVPRP | -0.0102
RRIRNRPPRLPRPRPRPLWVPRP | -0.0871
RRIRLRPPRLPRPRPRPVPYPRP | -0.2

Sequence | shrunken log2 fold change
RRIRKRPPRLPRPRPRPILYPRP | -0.505
RRIRQRPPRLPRPRPRPYLNPRP | -0.329
RRIRNRPPRLPRPRPRPDVSPRP | -0.0754
RRIRARPPRLPRPRPRPEFNPRP | 1.05
RRIRLRPPRLPRPRPRPIPQPRP | -0.0537
RRIRGRPPRLPRPRPRPARIPRP | 0.208
RRIRHRPPRLPRPRPRPKKEPRP | -0.0501
RRIRFRPPRLPRPRPRPQGSPRP | -0.0076
RRIRQRPPRLPRPRPRPGHMPRP | 0.0335
RRIRYRPPRLPRPRPRPPPCPRP | 0.574
RRIRARPPRLPRPRPRPCFPPRP | -0.0469
RRIRTRPPRLPRPRPRPILYPRP | -0.275
RRIRCRPPRLPRPRPRPKEYPRP | -0.207
RRIRMRPPRLPRPRPRPHFGPRP | 0.0712
RRIRWRPPRLPRPRPRPPRPPRP | 0.859
RRIRKRPPRLPRPRPRPTMLPRP | 0.131
RRIRSRPPRLPRPRPRPMVRPRP | 0.00927
RRIRTRPPRLPRPRPRPPMGPRP | 0.271
RRIRLRPPRLPRPRPRPPGHPRP | 0.224
RRIRKRPPRLPRPRPRPHGMPRP | -0.00215
RRIRTRPPRLPRPRPRPQPKPRP | 0.151
RRIRPRPPRLPRPRPRPDKSPRP | -0.442
RRIRTRPPRLPRPRPRPNVEPRP | -0.00865
RRIRARPPRLPRPRPRPCCQPRP | 0.102
RRIRARPPRLPRPRPRPVTSPRP | 0.293

Sequence | shrunken log2 fold change
RRIRTRPPRLPRPRPRPQKNPRP | -0.419
RRIRNRPPRLPRPRPRPSPEPRP | -0.123
RRIRNRPPRLPRPRPRPPSRPRP | 0.228
RRIRVRPPRLPRPRPRPLRSPRP | 0.132
RRIRTRPPRLPRPRPRPQCGPRP | -0.0173
RRIRYRPPRLPRPRPRPRFMPRP | -0.323
RRIRARPPRLPRPRPRPCGYPRP | 0.0562
RRIRIRPPRLPRPRPRPDEDPRP | -0.00875
RRIRERPPRLPRPRPRPELEPRP | 0.276
RRIRDRPPRLPRPRPRPPPFPRP | 0.321
RRIRIRPPRLPRPRPRPIDGPRP | -0.248
RRIRHRPPRLPRPRPRPAWCPRP | 0.081
RRIRARPPRLPRPRPRPRKQPRP | 0.301
RRIRTRPPRLPRPRPRPKTSPRP | -0.0907
RRIRIRPPRLPRPRPRPVETPRP | 0.156
RRIRTRPPRLPRPRPRPHWRPRP | 0.027
RRIRNRPPRLPRPRPRPNSIPRP | -0.728
RRIRDRPPRLPRPRPRPKNFPRP | -0.174
RRIRTRPPRLPRPRPRPGLNPRP | -0.213
RRIRARPPRLPRPRPRPWKAPRP | -0.0198
RRIRARPPRLPRPRPRPMVTPRP | 0.21
RRIRYRPPRLPRPRPRPAQFPRP | 0.0198
RRIRFRPPRLPRPRPRPHNMPRP | -0.896
RRIRARPPRLPRPRPRPCLHPRP | 1.24
RRIRDRPPRLPRPRPRPGREPRP | 0.603

Sequence | shrunken log2 fold change
RRIRERPPRLPRPRPRPYTEPRP | 0.0251
RRIRDRPPRLPRPRPRPPAHPRP | 0.56
RRIRWRPPRLPRPRPRPPASPRP | 0.319
RRIRRRPPRLPRPRPRPYWYPRP | -0.423
RRIRHRPPRLPRPRPRPYESPRP | -0.0531
RRIRGRPPRLPRPRPRPRSDPRP | 0.555
RRIRGRPPRLPRPRPRPCMSPRP | 0.151
RRIRDRPPRLPRPRPRPCHNPRP | -0.184
RRIRIRPPRLPRPRPRPAWQPRP | 0.342
RRIRGRPPRLPRPRPRPGIFPRP | 0.254
RRIRHRPPRLPRPRPRPNAIPRP | 0.0158
RRIRPRPPRLPRPRPRPRVKPRP | -0.0194
RRIRQRPPRLPRPRPRPQTIPRP | -0.16
RRIRKRPPRLPRPRPRPHGLPRP | 0.0425
RRIRNRPPRLPRPRPRPGHWPRP | 0.291
RRIRERPPRLPRPRPRPNHRPRP | -0.101
RRIRDRPPRLPRPRPRPVWCPRP | 0.162
RRIRVRPPRLPRPRPRPGHVPRP | 0.0316
RRIRNRPPRLPRPRPRPHCTPRP | -0.0475
RRIRGRPPRLPRPRPRPMKHPRP | 0.0417
RRIRLRPPRLPRPRPRPDYCPRP | 0.0561
RRIRWRPPRLPRPRPRPIIKPRP | -0.312
RRIRQRPPRLPRPRPRPSQNPRP | -0.383
RRIRERPPRLPRPRPRPVHPPRP | -0.00739
RRIRNRPPRLPRPRPRPWKEPRP | -0.59
